US20040224389A1

Molecular target: human Fas (CD95/APO-1) (human) (UniProt P25445)
Assay: flow cytometric immunofluorescence on 293 cells, 2 ug/ml antibody compared with FITC-conjugated isotype control DAK-G01

Chain of UniProt P25445 (P25445 26-335 limits assumed): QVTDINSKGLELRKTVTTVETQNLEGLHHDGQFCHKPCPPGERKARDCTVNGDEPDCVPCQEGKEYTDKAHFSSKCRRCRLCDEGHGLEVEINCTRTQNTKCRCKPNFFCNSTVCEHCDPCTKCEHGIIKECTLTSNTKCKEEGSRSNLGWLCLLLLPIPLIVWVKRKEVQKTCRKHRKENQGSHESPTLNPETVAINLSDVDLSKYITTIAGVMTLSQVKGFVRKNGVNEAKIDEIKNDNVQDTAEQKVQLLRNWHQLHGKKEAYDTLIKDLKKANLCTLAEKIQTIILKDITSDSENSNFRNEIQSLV

mean Fas fluorescence, fold over nonspecific fluorescence (isotype control): 4.9 fold
Substance: FITC-conjugated mouse IgG1 anti-human Fas receptor (clone DX2, Pharmingen) (antibody)
